Article PMC9716568, “The structure of His-tagged Geobacillus stearothermophilus purine nucleoside phosphorylase reveals a ‘spanner in the works’” (Acta Crystallographica. Section F, Structural Biology …, 2022)

Target: the molecule itself
Experiment: crystal structure; His-GsePNPase crystallized without ligands, 25 mg/ml in 50 mM HEPES pH 7.6, 100 mM NaCl, sitting drop, 291 K; three chains in the asymmetric unit, the hexamer generated by crystallographic symmetry; 1.72 Å

B1: N-terminally His-tagged purine nucleoside phosphorylase from Geobacillus stearothermophilus (enzyme)
chain: MHHHHHHSSGLVPRGSGMKETAAAKFERQHMDSPDLGTGSENLYFQGAMMSVHIGAKAGEIAERILLPGDPLRAKYIAETFLEGAVCYNEVRGMLGFTGTYKGERISVQGTGMGVPSISIYVNELIQSYGVKTLIRVGTCGAIQPDVRVRDVILAMSASTDSNMNRLIFRGRDYAPTADFHLLRTAYEVGVEKGLALKVGNVFTADMFYNDEPNWETWARYGVLAVEMETAALYTLAAKFGCRALSVLTVSDHILTGEETTAEERQMTFNEMIEVALEAAIRNGA
notes: hexameric purine nucleoside phosphorylase of Geobacillus stearothermophilus, KEGG GT50_19015, the open reading frame; the printed residue numbers (His4, Arg43, Arg87, Asp203) count from the first Met of this part; The whole construct as printed has 285 residues; The tag was not cleaved in the crystallized protein; also called His-GsePNPase; GsePNPase; source: E. coli BL21 (DE3), purified (IMAC on …)
- stoichiometry N: 6
